# Results as given in US20140295512A1, “Ketol-Acid Reductoisomerases With Improved Performance Properties” (CALIFORNIA INSTITUTE OF TECHNOLOGY, priority 2011, published 2014).
# Positions count from the first letter of the chain named. In names and notes the source's numbering stands.
# B1: Se1_KARI^EA8-his6: S. exigua KARI variant L57S (protein, UniProt D0WGK0 1-342, looked up, variant L57S)
# Ketol-acid reductoisomerase …: MSVKTKEKEMAVTILYEQDVDPKVIQGLKVGIIGYGSQGHAHALNLMDSGVDVRVGSREGSSSWKTAEEAGLKVTDMDTAAEEADVIMVLVPDEIQPKVYQEHIAAHLKAGNTLAFAHGFNIHYGYIVPPEDVNVIMCAPKGPGHIVRRQFTEGSGVPDLACVQQDATGNAWDIVLSYCWGVGGARSGIIKATFAEETEEDLFGEQAVLCGGLVELVKAGFETLTEAGYPPELAYFECYHEMKMIVDLMYESGIHFMNYSISNTAEYGEYYAGPKVINEQSREAMKEILKRIQDGSFAQEFVDDCNNGHKRLLEQREAINTHPIETTGAQIRSMFSWIKKED
# modifications: His6 tag
# notes: S. exigua KARI variant L57S
# B2: Se1_KARI^EE1-his6: S. exigua KARI variant L57R (protein, UniProt D0WGK0 1-342, looked up, variant L57R)
# Ketol-acid reductoisomerase …: B1 Ketol-acid reductoisomerase … with S57R
# modifications: His6 tag
# notes: S. exigua KARI variant L57R
# B3: Se1_KARI^LE9-his6: S. exigua KARI variant I95T (protein, UniProt D0WGK0 1-342, looked up, variant I95T)
# Ketol-acid reductoisomerase …: B1 Ketol-acid reductoisomerase … with S57L, I95T
# modifications: His6 tag
# notes: S. exigua KARI variant I95T
# B4: Se1_KARI^MH9-his6: S. exigua KARI variant V99L (protein, UniProt D0WGK0 1-342, looked up, variant V99L)
# Ketol-acid reductoisomerase …: B1 Ketol-acid reductoisomerase … with S57L, V99L
# modifications: His6 tag
# notes: S. exigua KARI variant V99L
# B5: Se1_KARI^CD10-his6: S. exigua KARI variant Y35H (protein, UniProt D0WGK0 1-342, looked up, variant Y35H)
# Ketol-acid reductoisomerase …: B1 Ketol-acid reductoisomerase … with Y35H, S57L
# modifications: His6 tag
# notes: S. exigua KARI variant Y35H
# B6: S631: Slackia KARI variant with residue S63 mutated (printed S631, probably S63I) (protein, UniProt D0WGK0 1-342, looked up, variant S63I)
# Ketol-acid reductoisomerase …: B1 Ketol-acid reductoisomerase … with S57L, S63I
# B7: S63M: Slackia KARI variant with residue S63 mutated to M (protein, UniProt D0WGK0 1-342, looked up, variant S63M)
# Ketol-acid reductoisomerase …: B1 Ketol-acid reductoisomerase … with S57L, S63M
# B8: S63R: Slackia KARI variant with residue S63 mutated to R (protein, UniProt D0WGK0 1-342, looked up, variant S63R)
# Ketol-acid reductoisomerase …: B1 Ketol-acid reductoisomerase … with S57L, S63R
# B9: S63E: Slackia KARI variant with residue S63 mutated to E (protein, UniProt D0WGK0 1-342, looked up, variant S63E)
# Ketol-acid reductoisomerase …: B1 Ketol-acid reductoisomerase … with S57L, S63E
# B10: S63H: Slackia KARI variant with residue S63 mutated to H (protein, UniProt D0WGK0 1-342, looked up, variant S63H)
# Ketol-acid reductoisomerase …: B1 Ketol-acid reductoisomerase … with S57L, S63H
# Test: KARI assay of purified S. exigua KARI and variants with NADH (Examples 6-9)
# Type: biochemical
# Conditions: cofactor NADH
# Protocol: (§1) S. exigua KARI activity or activities of its variants were assayed kinetically by monitoring the decrease in NADPH or NADH concentration by measuring the change in absorbance at 340 nm. An assay buffer was prepared containing 100 mM potassium phosphate pH 7.0, 1 mM DTT, 2.5 mM (S)-2-acetolactate, and 10 mM MgCl2 (final concentrations in the 1-mL assay, accounting for dilution with enzyme and cofactor). Fifty μL purified enzyme and 930 μL of the assay buffer were placed into a 1-mL cuvette. The reaction was initiated by addition of 20 μL NADPH or NADH (200 μM final concentration) for a general activity assay. Michaelis-Menten constants of the cofactors were determined with varying concentrations of NADPH (200-12 μM final) or NADH (200-6 μM final).
row,Molecule,U/mg NADH (specific activity) [U/mg]
1,B1,0.19
2,B2,0.06
3,B3,0.32
4,B4,0.21
5,B5,0.13

# Same assay, conditions: specific activity ratio
row,Molecule,Ratio NADH/NADPH (U/mg)
1,B1,0.76
2,B2,1.58
3,B6,4
4,B7,4
5,B3,0.58
6,B8,3.7
7,B4,0.64
8,B9,9
9,B5,0.68
10,B10,4

# Test: KARI assay of purified S. exigua KARI and variants with NADPH (Examples 6-9)
# Type: biochemical
# Conditions: cofactor NADPH
# Protocol: as §1
row,Molecule,U/mg NADPH (specific activity) [U/mg]
1,B1,0.25
2,B2,0.04
3,B3,0.56
4,B4,0.34
5,B5,0.19
